Positions count from the first letter of the chain named.

The results in this text go back to patent US20220227874A1, “CHIMERIC ANTIGEN RECEPTORS TARGETING EPIDERMAL GROWTH FACTOR RECEPTOR VARIANT III” (published 2022).

The chains are these.
B1: 32A10 (antibody, V domains shown)
VH: QVTLKESGPVLVKPTETLTLTCTVSGFSLSNARMGVSWIRQPPGKALEWLAHIFSTDEKSIRRSLRSRLTLSKDTSKSQVVLTMTNMDPVDTATYFCARDSSNYEGYFDYWGQGTLVTVSS
VL: EVVMTQSPATLSVSPGERVTLSCRASQSVSSNFAWYQQRPGQAPRLLLYGATTRATGLPGRFSGSGSGTENILTISSLQSEDFAIYFCQQYKDWPFTFGPGSKVDIK
B2: 29D5 (antibody, V domains shown)
VH: B1 VH with A32P, I39L, L50F, I61Y, R62S, R63P, S67G, L71V, M84L, F96Y
VL: KIVMTQSPATLSVSPGERATLSCRANQIVSSNLAWYQQKPGQAPRLLVFGTSTRATGIPIRFSGSGSGTEFTLTVSSLQSEDFAVYVCQQYNDWPFTFGPGTKVDIK
B3: 21E11 (antibody, V domains shown)
VH: B1 VH with A32V, L50F, T56S, F96Y, Y110F
VL: DMVVTQSPATLSVSPGERATLSCRASQSVGSDLAWYQQPPGQSPRLLIYGASTRATGVPARFSGSGSGTDFTLTITSLESEDFAVYYCQQYNDWPFTFGPGTKVDIK
B4: 21E7 (antibody, V domains shown)
VH: B1 VH with K5E, L47P, L50F, I61L, R63L, F96Y
VL: DVVLTQSPATLSVSPGERATLSCRASQSVNSNLAWYQQNPGQAPRLLIFGSSTRATGIPASFSGSGSGTEFTLTINSLQSEHSAVYYCQQYNDWPFTFGPGTKVDIK
B5: 11B11 (antibody, V domains shown)
VH: B1 VH with R33K, L71M, F96Y, A98V
VL: B1 VL with V3L, V19A, S31T, Y49F, T52S, L58I, D105E
B6: 12H6 (antibody, V domains shown)
VH: B1 VH with F96Y
VL: B1 VL with V19A, S28G, A43S, T52S, L58V
B7: 46E10 (antibody, V domains shown)
VH: B1 VH with T83I, F96Y
VL: B1 VL with A9P, T10N, V19A, S30T, A43S, T52S, L58V, I85V
B8: 49B11 (antibody, V domains shown)
VH: B1 VH with A32V, L50F, T56S, F96Y
VL: B3 VL with D1E, V3E, S28N, V29I, P39Q, P40S, S43A, Y49S, A60T, E79Q
B9: 12B2 (antibody, V domains shown)
VH: B1 VH with A32P, A51G, T56S, I61Y, R63L, T70S, L71I, F96Y, A98V, E105G
VL: EVVMTQSPATLSVSPGERATLSCRASQSVINNLAWYQQKPGQAPRLLIYGTSTRATDIPARFSGSGSGTEFTLTISSLQSEDFAVYYCQDYNNWPFTFGPGTKVDIK
B10: 19A9 (antibody, V domains shown)
VH: B1 VH with K5E, L47P, L50F, I61L, R63L, F96Y
VL: B4 VL with D1E, L4M, S31R, N39K, S51T, S61R, N76D, A84G, V85L
B11: 14C11 (antibody, V domains shown)
VH: B1 VH with S30N, L50F, I61F, R63T, F96Y, T115I
VL: EIVMTQSPATLSVSPGERATLSCRASQSVSNNLAWYQQKPGQAPRLLIYGASTRATGVPARFSGSDSGTEFSLTISSLQSEDFAVYFCQQYKDWPFTFGPGTKVEIK
B12: 42G9 (antibody, V domains shown)
VH: B1 VH with V12L, A32P, L50F, I61L, R62K, R63L, D88A, T92S, F96Y, Y110F
VL: EVVLTQSPATLSVSPGERATLSCRASQSVRSNLAWYQQKSGQAPRLLIYGSTIRATGVPARFSGSGSGTEFTLTISSLQSEDFAVYYCQQYSDWPFTFGPGTKVDIK
B13: 11F10 (antibody, V domains shown)
VH: QVTLKESGPVLVKPIETLTLTCTVCGFSLSNPRMGVSWIRQPPGKALEWLGHIFSSDEKSYRLFLRSRLSISKDTSKSQVVLTMTNMDPVDTATYYCARDSSDYEGYFDYWGQGTLVTVSS
VL: EIVMTQSPATLSVSPGERTTLSCRASQSVGSNLAWYQQKPGQAPRLLIYGASTRASGVPARFSGSGSGTEFTLTISSLQSEDFAVYSCQEYNNWPFTFGQGTKVEIK
B14: 20B9 (antibody, V domains shown)
VH: QVTLKESGPVLVKPTETLTLTCTVSGFSLSNARMGVSWIRQPPGKALEWLGHIFSTDEKSYSTSLRGRITISKDTSRGLVVLTLTNMDPVDTATYYCARDSSNYEGYFDFWGPGFLVTVSS
VL: EIVMTQSPATLSVSPGERATLSCRVSQSIGANLAWYQQKFGQAPRLLIYGASTRATGIPVRFSGGGSGTEFTLTISSLQSEDFAIYSCQQYIYWPFTFGPGTTVDIK
B15: 20G5 (antibody, V domains shown)
VH: EVQLVESGGDLVKPGGSLRLSCAASGFTFTNAWMSWVRQAPGKGLEWVGRIKSKIDGGTTDYAAPVKGRFIISRDDSKNTLSLQMNSLKTEDTAMYYCTTAPGGPFDYWGQGSLVTVSS
VL: DIVLTQSPLSLPVTPGEPASISCRSSQSLLYSDRRNYLDWFLQKPGQSPHLLIYLGSYRASGVPDRFSGSGSGTDFTLKISRVEAEDVGVYYCMQALQIPITFGQGTRLEIK
B16: 26B9 (antibody, V domains shown)
VH: EVQLVESWGVLVKPGGSLRLSCAASGFIFNNAWMSWVRQAPGKGLEWIGRIKSKSDGGTTDYAAPVKDRFTISRDDSKDTLYLQMNGLKTEDTAVYFCTTAPGGPFDYWGQGTLVTVSS
VL: B15 VL with Y31H, S32R, R34G, R35F, H50Q, G56A, Y58S, G71D, I99T
B17: 30D8 (antibody, V domains shown)
VH: EVQLVESGGGLVKPGGSLRLSCEASGFTFSDAWMSWVRQAPGKGLEWVGRIKSKTDGGTTDYVVPLNGRFIISRDDSRNTLYLQLNNLKTEDTAVYYCTTVPGSYGYWGQGTLVTVSS
VL: DIVMTQSPLSLPVTPGEPASISCRSSQSLLHNKRNNYLDWFLQKPGQSPQLLIYLASNRASGVPDRFSGGGSGTDFTLKISRVEAEDVGVYYCMQAQQTPITFGQGTRLEIK
B18: 20E12 (antibody, V domains shown)
VH: EVNLVESGGGLVKPGGSLRLSCEASGFTFSYAWMSWVRQAPGKGLEWVGRIKSIADGGATDYAAPVRNRFTISRDDSRNTLYLEMHSLKTEDTAVYYCTTIPGNDAFDMWGQGTMVTVSS
VL: DIVLTQSPLSLSVTPGEPASISCRSSQSLLYSNGKNYLDWFLHKPGQSPQLLIYLGSNRASGVPDRFSGSGSGIDFILKISRVEAEDVGVYYCMQAQQTPITFGQGTRLEIK
B19: 32G8 (antibody, V domains shown)
VH: B18 VH with A55T, A59V, T60I, F70C, A106D, T114R
VL: B18 VL
B20: 34E7 (antibody, V domains shown)
VH: B18 VH with A55N, A64S, T80M, M115L
VL: B18 VL with S26T, Y54F, N58I

The first test concerns the target T1, EGFRvIII expressed on cells (F98-npEGFRvIII, NCI-H522-EGFRvIII, U87-KO-EGFRvIII) (human). Briefly: flow cytometry, F98-EGFRvIII cells; 2nd Ab only 2.3.
With B1, the “% positive” value is 98.3%.

As for B2, the “% positive” value amounted to 97.9%.

In the case of B3, the “% positive” value was found to be 98.5%.

Take B4: the “% positive” value came out at 98.5%.

Take B5: the “% positive” value was found to be 98.2%.

With B6, the “% positive” value was 98.3%.

For the molecule B7, the “% positive” value stood at 98.7%.

For the molecule B8, the “% positive” value was 98.5%.

For the molecule B9, the “% positive” value is 97.9%.

Regarding B10, the “% positive” value is 98.1%.

For B11, the “% positive” value came to 98.2%.

For B12, the “% positive” value came out at 98.5%.

With B13, the “% positive” value amounted to 98%.

Turning to B14, the “% positive” value was 98.3%.

The next test addresses T1, EGFRvIII expressed on cells …. Briefly: flow cytometry, F98-EGFRvIII cells; 2nd Ab only 322.
Molecule B15 registered an MFI of 4640.

B16 gave an MFI of 5400.

Consider B17, for which the MFI was 5160.

Take B18: the MFI is 3980.

Turning to B19, the MFI turned out to be 3730.

The molecule B20 yielded an MFI of 4130.

The target is the same in another test. Briefly: flow cytometry, F98-EGFRvIII cells; 2nd Ab only 1.3.
On to B15, for which the “% positive” value came to 98.5%.

With B16, the “% positive” value came out at 98.6%.

Turning to B17, the “% positive” value was determined as 98.6%.

Consider B18, for which the “% positive” value came to 97.9%.

B19: the “% positive” value is 98.6%.

As to B20, the “% positive” value stood at 98.5%.

For a further test the target is unchanged. Briefly: flow cytometry, F98-EGFRvIII cells; 2nd Ab only 258.
Regarding B1, the MFI was determined as 3350.

B2 returned an MFI of 2830.

In the case of B3, the MFI stood at 3100.

On to B4, for which the MFI is 3100.

Regarding B5, the MFI worked out at 3390.

On to B6, for which the MFI was 3440.

With B7, the MFI was 2990.

B8 registered an MFI of 2980.

The molecule B9 had an MFI of 2750.

Turning to B10, the MFI is 3100.

The molecule B11 yielded an MFI of 3210.

Regarding B12, the MFI amounted to 3250.

Molecule B13 had an MFI of 3280.

In turn, B14 yielded an MFI of 3420.

The target is the same in another test. Briefly: flow cytometry, EGFRvIII expressing cell line against non-expressing cell lines.
B16: the “fold MFI over non-expressing cell lines” value was at least 10 fold.

As to B1, the “fold MFI over non-expressing cell lines” value was at least 10 fold.

Turning to B2, the “fold MFI over non-expressing cell lines” value was at least 10 fold.

For B3, the “fold MFI over non-expressing cell lines” value was at least 10 fold.

Turning to B4, the “fold MFI over non-expressing cell lines” value is at least 10 fold.

As to B5, the “fold MFI over non-expressing cell lines” value was at least 10 fold.

Turning to B6, the “fold MFI over non-expressing cell lines” value was at least 10 fold.

Turning to B7, the “fold MFI over non-expressing cell lines” value was at least 10 fold.

B8: the “fold MFI over non-expressing cell lines” value was at least 10 fold.

For the molecule B9, the “fold MFI over non-expressing cell lines” value is at least 10 fold.

For the molecule B10, the “fold MFI over non-expressing cell lines” value was at least 10 fold.

As for B11, the “fold MFI over non-expressing cell lines” value was at least 10 fold.

In the case of B12, the “fold MFI over non-expressing cell lines” value was at least 10 fold.

For the molecule B13, the “fold MFI over non-expressing cell lines” value was at least 10 fold.

Regarding B17, the “fold MFI over non-expressing cell lines” value is at least 10 fold.

As to B14, the “fold MFI over non-expressing cell lines” value was at least 10 fold.

With B18, the “fold MFI over non-expressing cell lines” value is at least 10 fold.

With B19, the “fold MFI over non-expressing cell lines” value is at least 10 fold.

Regarding B20, the “fold MFI over non-expressing cell lines” value was at least 10 fold.
